The record followed here is patent US20120270768.

Regarding prostate specific antigen (PSA), the “PSA hydrolysis (release of L12ADT, LC/MS)” value with Mu-SSKYQ//L12ADT and with Mu-HSSKLQ//L12ADT was “the new prodrug was hydrolyzed dramatically better than the test peptide” throughout. The “Kcat against Mu-HSSKLQ-AMC” value in the series on Ac-GKSQYQ-AMC, with Ac-GsAKYQ-AMC and with Ac-GSSKYQ-AMC was “˜10-fold improvement in the Kcat kinetic parameter” throughout. Moreover, the Kcat/Km is 278 s^-1M^-1 in the series on Ac-GKSQYQ-AMC; 218 s^-1M^-1 in the series with Ac-GsAKYQ-AMC; 227 s^-1M^-1 in the series on Ac-GSSKYQ-AMC; 86 s^-1M^-1 with Ac-GSSKFQ-AMC; 23.6 s^-1M^-1 with Mu-HSSKLQ-AMC. Besides, the “Kcat/Km ratio against Mu-HSSKLQ-AMC” value in the series on Ac-GKSQYQ-AMC, in the series on Ac-GsAKYQ-AMC and with Ac-GSSKYQ-AMC was “Kcat/Km ratios that were 10-fold higher than the Mu-HSSKLQ-AMC test peptide” throughout. The Km – broadly, the concentration of substrate that gives half-maximal velocity – with Ac-GKSQYQ-AMC is 343 µM; in the series on Ac-GsAKYQ-AMC it was 653 µM; in the series with Ac-GSSKYQ-AMC it was 500 µM; in the series with Ac-GSSKFQ-AMC it was 666 µM; in the series with Mu-HSSKLQ-AMC it was 470 µM. The kcat (usually the number of substrate molecules converted per active site and unit of time at saturation) is 0.09 s⁻¹ in the series with Ac-GKSQYQ-AMC; 0.143 s⁻¹ with Ac-GsAKYQ-AMC; 0.113 s⁻¹ in the series with Ac-GSSKYQ-AMC; 0.057 s⁻¹ in the series with Ac-GSSKFQ-AMC; 0.011 s⁻¹ in the series with Mu-HSSKLQ-AMC.
